The source of these data is the Immune Epitope Database (IEDB).

Holding throughout (test): IEDB peptide-MHC binding, purified MHC/direct/fluorescence; filed as Kd, often an IC50 or EC50 that approximates it; ≥ and ≤ were set here for values at or beyond the usual limits of such assays
Holding throughout (conditions): source organism: Homo sapiens

The target of experiment [1] is HLA-A*24:02.
The target of experiment [2] is HLA-B*08:01.
Experiment [3] has as its target HLA-B*13:02.
Experiment [4] has as its target HLA-C*07:01.
Experiment [5] addresses HLA-A*02:01.
Experiment [6] addresses HLA-C*01:02.

In the case of SYLEQASRI, in experiment [1], the Kd came to 1000 nM.
As to DMKARQEAL, the Kd in experiment [2] amounted to 100 nM.
The sequence ELPKYGVKV showed a Kd in experiment [3] of no less than 10000 nM.
Consider FLHEKQHEL, for which, in experiment [2], the Kd was 100 nM.
On the same count and under the same terms, the value for YIHGGGWAL was 100 nM.
Turning to KRPTPTFHS, the Kd in experiment [4] was 1000 nM.
In experiment [5], HLIDPNTLQV gave a Kd of 10 nM.
On the same count and under the same terms, the value for LLMEKEDYHSL was 100 nM.
With FLPWHRLFL, the dissociation constant (Kd) in experiment [6] amounted to 100 nM.
For the sequence QLPDSVNQL, the Kd in experiment [5] worked out at 100 nM. In other words, the sub-micromolar range.
Consider RSLEYLPLRF, for which, in experiment [1], the dissociation constant Kd is no less than 10000 nM.
